Reference: PMC5714352
pKd: −log10 of the molar value.

Tested on: NucT H124N (Helicobacter pylori 26695)
Test: EMSA

CAACGGCATAAAGCTTGACGATTACATTGCTAGGACATCTTTGCCCACCTGCAGGTTCACCC [substrate I (XV98, 62-mer ssDNA)]
pKd: 8.70
